# Measured values published in PMC7654188.
# Target: preassembled microtubule filaments (tubulin polymerised with Taxol)
# Assay: co-sedimentation; microtubule spin-down assay (Cytoskeleton BK029): 5, 10 and 20 ug of COS1 lysate with or without Taxol-stabilised microtubule, room temperature 30 min, 60% glycerol cushion, 100,000 x g 40 min; pellet blotted with HA tag and alpha-tubulin antibodies
substance,measurement,value
HA-tagged CTTNBP2 D570Y (natural protein),fold microtubule binding relative to WT protein,2.5 to 4 fold
